Molecular target: preformed IL-17RA-IL-17A complex (IL-17A captured by immobilised IL-17RA) (human) (UniProt Q16552)
Assay: SPR, second receptor injected over IL-17A captured on immobilised IL-17RA

Sequence of preformed IL-17RA-IL-17A complex (IL-17A captured by immobilised IL-17RA) (human) (Q16552 other isoform, or with tags, fused parts or gaps): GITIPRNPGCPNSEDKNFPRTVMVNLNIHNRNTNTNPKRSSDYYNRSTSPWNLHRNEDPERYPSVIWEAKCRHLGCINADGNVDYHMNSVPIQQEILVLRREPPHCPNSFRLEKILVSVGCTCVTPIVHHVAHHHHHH

“IL-17RA extracellular domain (ECD) (receptor)” was tested, and the Kd was 3.1 µM.
